Data on one substance can be found in paper PMC10310818.

This experiment concerns the target 2b-3×Flag (pGD-2b-3×Flag) (cucumber mosaic virus (CMV)) (UniProt Q66125).

The substance “VISP1-GFP (pGDGm-VISP1-GFP) (natural protein)” came in with an accumulation of 2b-Flag co-expressed with VISP1-Myc, relative to empty vector (immunoblot, N. benthamiana leaves, 60 hpi) of 0.11 fold.
